From patent publication US20180362629A1 (ZOETIS BELGIUM S A, published 2018) come the findings set out here.

Experiment [1] addresses human β NGF (R&D Systems catalog #256-GF/CF) (human) (UniProt P01138). Kind of experiment: cell-based or functional assay.
Experiment [2] deals with T1, recombinant canine β NGF (canine, UniProt Q29074 110-229 (pig entry)).
T1 chain: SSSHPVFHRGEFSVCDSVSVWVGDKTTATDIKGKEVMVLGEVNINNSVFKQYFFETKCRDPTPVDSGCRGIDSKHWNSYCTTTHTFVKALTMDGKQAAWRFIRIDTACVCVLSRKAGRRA
Nature of the experiment: cell-based or functional assay.

The target of experiment [3] is T1, recombinant canine β NGF. Nature of the experiment: cell-based or functional assay.
Experiment [4] addresses T1, recombinant canine β NGF. Nature of the experiment: direct ELISA, canine NGF coated at 1 µg/ml, mAb at 2 µg/ml. As to the method: (§1) To determine if purified mouse anti-NGF mAbs bind to canine β NGF, ELISA plates were coated with 50 μl/well of canine NGF (Abbott Laboratories) at 1 μg/ml in PBS and incubated over night at 4° C. The plates were washed three times with PBS+Tween buffer. The plates were blocked with 200 μl/well of 2% milk in PBS for 1 hour at room temperature. The plates were washed three times as above. Purified antibodies were diluted to 0.4, 2, or 10 μg/ml. 50 μl of each concentration of purified antibody was added to the plates. The plates were incubated for 1 hour at room temperature. The plates were washed. 50 μl of a 5000-fold diluted goat anti-mouse IgG Fc-HRP (Thermo, catalog #31439) was added. The plates were incubated for 1 hour at room temperature. 50 μl of TMB (Invitrogen, catalog #00-2023) was added and the reaction was stopped using 2N H₂SO₄ (VWR, catalog # BDH3500-1). The absorbance at 450 nm was read on a Spectromax 2E plate reader (Molecular Devices). The results are shown in Table 9, and the numerical value indicates binding of mouse anti-NGF antibodies to canine β NGF.
For orientation: In an ELISA, binding on a coated surface is turned into a signal by an enzyme label.

The target in experiment [5] is T1, recombinant canine β NGF. Nature of the experiment: direct ELISA, canine NGF coated at 1 µg/ml, mAb at 10 µg/ml. As to the method: as §1
Experiment [6] concerns the target T1, recombinant canine β NGF. Nature of the experiment: direct ELISA, canine NGF coated at 1 µg/ml, mAb at 0.4 µg/ml. As to the method:
as §1

The target of experiment [7] is T1, recombinant canine β NGF. Nature of the experiment: SPR (Biacore), mAb captured on goat anti-mouse IgG Fc, canine NGF injected; Expt 1. As to the method: (§2) A biomolecular protein interaction analysis was used to evaluate the binding kinetics of the interaction between the purified anti-NGF hybridoma antibodies and recombinant canine β NGF. The antibodies were captured using a goat anti-mouse IgG FC (10000 RU) surface which was directly immobilized to a CM5 chip using an amine coupling procedure according to the manufacturer's instructions (Biacore). A sample size of 5 μl of antibody at a concentration of 1 μg/ml was captured at 10 μl minute. Recombinant canine NGF was used as the antigen. Canine NGF was injected at 75 μl/min (concentration range: 5-0.039 nM) for mouse antibodies. The association rate was monitored for 3.3 minutes and the dissociation rate was monitored for 10 minutes. Aliquots of canine NGF were also simultaneously injected over a reference reaction CM surface to record any nonspecific binding background. The instrument sensitivity for on-rate is I×IO⁷, such that any on-rate that is faster than I×IO⁷ may not be accurately measured; the instrument sensitivity for off-rate is […], such that any off-rate that is slower than 1×10⁻⁶ may not be accurately measured. Therefore, an on-rate that is faster than 1×10⁷ is recorded as >1×10⁷ and an off-rate that is slower than 1×10⁻⁶ is recorded as <1×10⁻⁶.
Background: Surface plasmon resonance follows binding to a sensor surface in real time, without labels.

In experiment [8] the target is T1, recombinant canine β NGF. Nature of the experiment: SPR (Biacore), mAb captured on goat anti-mouse IgG Fc, canine NGF injected; Expt 2. Here is the method:
as §2

For experiment [9], the target named is T1, recombinant canine β NGF. Nature of the experiment: SPR (Biacore), mAb captured on goat anti-mouse IgG Fc, canine NGF injected; Average. Here is the method: as §2
In experiment [10] the target is T1, recombinant canine β NGF. Kind of experiment: cell-based or functional assay.
For experiment [11], the target named is T1, recombinant canine β NGF. Nature of the experiment: SPR (Biacore T100), antibody captured on goat anti-canine IgG, canine NGF injected. As to the method: Purified mouse/canine chimeric antibodies and caninized antibodies were analyzed for affinity to canine NGF using a Biacore T100 instrument. Goat anti Canine IgG (Southern Biotech) was immobilized at 5000-10000 RU on a CM5 chip using an amine coupling procedure according to the manufacturer's instructions (Biacore). […] The association rate was monitored for 5 min and the dissociation rate was monitored for 10-20 min. The chip surface was regenerated using 50-75 ul 10 mM glycine pH 1.5 at a flow rate of 50-100 ul/min. Data was analyzed using Biaevaluation T100 software version 2.0.2, software, GE Healthcare Life Sciences (Piscataway, N.J.). Overall affinity parameters established for mouse/canine chimeric antibodies is summarized in Table 22 and for caninized antibodies in Table 23. […] The overall KDs of the mouse/canine anti-NGF mAbs range from about 1300 pM to 1.6 pM. […] The overall KDs of the caninized anti-NGF mAbs range from about 42 pM to 1.2 pM.

As a reminder, the Kd is the concentration at which binding is half-saturated. By koff is commonly meant the rate constant with which the complex falls apart. The kon is the rate constant with which the complex forms.

“And” between values parts separate entries of the source, which are not always exact repeats. Equal values may be shown once. Read-outs that look alike come from different tables or passages of the source.

Chain of human β NGF (R&D Systems catalog #256-GF/CF) (human) (P01138 122-241 limits assumed): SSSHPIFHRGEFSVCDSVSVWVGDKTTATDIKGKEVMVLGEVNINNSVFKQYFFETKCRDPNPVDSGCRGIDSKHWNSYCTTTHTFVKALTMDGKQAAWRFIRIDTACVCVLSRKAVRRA

Consider Unrelated hybridoma (antibody), for which, in [1], the PathHunter % of max signal, supernatant 1000-fold was 136% and 144%; the PathHunter % of max signal, supernatant 5000-fold was 126% and 132%; the PathHunter % of max signal, supernatant 10000-fold is 138% and 137%.

B1: PR-1254981 (antibody, mouse IgG1, V domains shown)
VH: EVQLVESGGGAVKPGGSLTLSCAASGFTFSNHYMYWVRQTPEKRLEWVASISDGGAYTFYPDTVKGRFTISRDNVNNNLYLQMRHLKSEDTAMYYCTREESANNGFAFWGQGTLVTVSA
VL: DVLMTQTPLSLPVSLGDQASISCRSSQSILHSNGNTYLEWYLQKPGQSPNLLIYRVSNRFSGVPDRFSGSGSGTDFTLKISRVEAEDLGVYYCFQGAHVPFTFGSGTKLEIKR
notes: also called 14A9; ML130-14A9.5B12
As to B1, the “IC50, canine NGF-induced TF-1 cell proliferation (70 pM canine NGF)” value (“IC50 … (70 pM canine NGF)” for short) with recombinant canine β NGF [2] was found to be 46 pM. Also, the “PathHunter IC50 (441 pM canine NGF)” value with recombinant canine β NGF [3] is 0.279 nM. Also, the “SureFire pERK IC50 (128 pM canine β NGF)” value with recombinant canine β NGF [3] is 21.4 pM. For the same molecule, the “absorbance at 450 nm” value in the experiment with recombinant canine β NGF [4] was 0.458 A450; with recombinant canine β NGF [5], 0.61 A450; in the experiment with recombinant canine β NGF [6], 0.229 A450. Besides, the Kd with recombinant canine β NGF [7] came out at 0.0147 nM; in the experiment with recombinant canine β NGF [8], 0.0187 nM; in the experiment with recombinant canine β NGF [9], 0.0167 nM. Besides, the dissociation rate constant (koff) with recombinant canine β NGF [7] was determined as 0.000127 s⁻¹; with recombinant canine β NGF [8], 0.00014 s⁻¹; with recombinant canine β NGF [9] it was 0.000134 s⁻¹. Further, the kon turned out to be 8.67e+06 M⁻¹ s⁻¹ with recombinant canine β NGF [7], 7.48e+06 M⁻¹ s⁻¹ with recombinant canine β NGF [8] and 8.08e+06 M⁻¹ s⁻¹ with recombinant canine β NGF [9].

B2: Mu81 Canine IgG1/k Chimera (antibody, V domains shown)
VH: B1 VH
VL: B1 VL
notes: also called PR-1290657; lot 1778832
With B2, the “IC50 … (70 pM canine NGF)” value in the experiment with recombinant canine β NGF [10] was determined as 12 pM. In the experiment with recombinant canine β NGF [11], the Kd was found to be 0.082 nM and the koff was determined as 0.00035 s⁻¹.

B3: Mu77 Canine IgG1/k Chimera (antibody, V domains shown)
VH: EVQLQQSGAELVKPGASVKLSCTASGFNIKDTYIYWVKQRPEQGLEWIGRIDPANGNTIYASKFQGKASITADTSSNTAYMQLSSLTSGDTAVYYCAGYGYYAYWGQGTTLTVSS
VL: DVVLTQTPLSLPVNIGDQASISCKSTKSLLNGDGFTYLDWYLQKPGQSPQLLIYLVSNRFSGVPDRFSGSGSGTDFTLKISRVEAEDLGVYYCFESNYLFTFGSGTKLEMKR
notes: also called PR-1290656; lot 1785699
For B3, the “IC50 … (70 pM canine NGF)” value in the experiment with recombinant canine β NGF [10] came to 28 pM. Further, in the experiment with recombinant canine β NGF [11], the equilibrium dissociation constant (Kd) was found to be 0.021 nM and the off-rate (koff) worked out at 0.00019 s⁻¹.

B4: PR-1254973 (antibody, mouse IgG2b, V domains shown)
VH: QVQLQQPGAELVKPGASVKLSCKASGYTFTNYWMHWVKQRPGQGLEWIGRIDPYGGGTKHNEKFKRKATVTADKSSSTAYILLSSLTSEDSAVYYCTRSGYDYYFDVWGTGTTVTVSS
VL: DIQMTQSPASLSASVGETVTVTCRASENIYSFLAWHQQKQGKSPQLLVYNANTLAEGVPSRFSGSGSGTQFSLKINSLQPEDFGSYYCQHHFGTPFTFGSGTKLEIKR
notes: also called 2B12; ML129-2B12.5G9
Turning to B4, the “IC50 … (70 pM canine NGF)” value with recombinant canine β NGF [2] amounted to 39 pM. In addition, the “PathHunter IC50 (441 pM canine NGF)” value in the experiment with recombinant canine β NGF [3] came out at 0.143 nM. For the same molecule, in the experiment with recombinant canine β NGF [3], the “SureFire pERK IC50 (128 pM canine β NGF)” value came to 18.8 pM. Also, the “absorbance at 450 nm” value amounted to 0.836 A450 with recombinant canine β NGF [4], 0.905 A450 in the experiment with recombinant canine β NGF [5] and 0.769 A450 with recombinant canine β NGF [6]. Further, the dissociation constant (Kd) in the experiment with recombinant canine β NGF [7] was below 0.0121 nM; with recombinant canine β NGF [8], below 0.0138 nM; with recombinant canine β NGF [9], below 0.013 nM. Moreover, the results for the dissociation rate constant (koff) in the experiment with recombinant canine β NGF [7], in the experiment with recombinant canine β NGF [8] and with recombinant canine β NGF [9] were 0.000121 s⁻¹, 0.000138 s⁻¹ and 0.00013 s⁻¹, respectively. In addition, the on-rate constant (kon) in the experiment with recombinant canine β NGF [7], with recombinant canine β NGF [8] and with recombinant canine β NGF [9] was above 1e+07 M⁻¹ s⁻¹ each time.

B5: Mu73 Canine IgG1/k Chimera (antibody, V domains shown)
VH: B4 VH
VL: B4 VL
notes: also called PR-1290654; lot 1785658
For B5, in the experiment with recombinant canine β NGF [10], the “IC50 … (70 pM canine NGF)” value came to 8 pM. Moreover, in the experiment with recombinant canine β NGF [11], the Kd came to 0.014 nM and the koff worked out at 9e-05 s⁻¹.

B6: Mu82 Canine IgG1/k Chimera (antibody, V domains shown)
VH: QVQLKESGPGLVAPSQSLSITCTVSGFSLTGYNINWVRQPPGKGLEWLGMIWGYGDTDYNSALKSRLSISKDNSKSQVFLKMNSLQTDDTARYYCARDHYGGNDWYFDVWGTGTTVTVSS
VL: DIQMTQTTSSLSASLGDRVTITCRASQDITNYLNWYQQKPDGTVKLLIYYTSRLHSGVPSRFSGSGSGTDYSLTISNLDQEDIATYFCQQGKTLPRTFGGGTKLEIKR
notes: The exact junction was not checked; also called PR-1290658; lot 1785732
Take B6: in the experiment with recombinant canine β NGF [10], the “IC50 … (70 pM canine NGF)” value came to 7 pM. Also, in the experiment with recombinant canine β NGF [11], the Kd was found to be 0.0016 nM and the koff was found to be 1.4e-05 s⁻¹.
